Measured values as given in US5763177, “Systematic evolution of ligands by exponential enrichment: photoselection of nucleic acid ligands and solution selex” (NeXstar Pharmaceuticals, Inc.).

Tests used:
[1] = target: T1, HIV-2 Rev (Human immunodeficiency virus 2, UniProt P04615 P04615:1-100); assay: photocrosslinking 325 nm 4 min, 500 nM protein, 20 ug tRNA, 37 C; conditions: hairpin
T1 sequence: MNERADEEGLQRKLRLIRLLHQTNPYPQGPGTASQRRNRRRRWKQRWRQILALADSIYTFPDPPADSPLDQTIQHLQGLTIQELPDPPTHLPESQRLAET
From the text: (§1) The sequences are aligned for maximum homology to the 6a sequence (SEQ ID NO:5). Underlines represent potential base pairing as indicted by computer RNA folding algorithms. Dashed underlines represent the 6a ligand "bubble" motif. Sequences flanked by underline represent either loop or bulge regions. Dashes are placed to maximize alignment with 6a. * denotes that two isolates were obtained. +indicates laser independent crosslinking and—denotes the lack of laser independent crosslinking to HIV-1 Rev. […] FIGS. 18 and 19 show the sequence of Trunc2 (SEQ ID NO:58) and Trunc24 (SEQ ID NO:59) and the specificity results. 500 nM protein, 20 µg tRNA, and approximately 1 nM of kinased trunc2 RNA were incubated for 10 min. at 37° C. and irradiated for 4 min at 325 nm. t2-trunc2 RNA irradiated without added protein; t2Rev1/0'-trunc2 RNA, HIV-1 Rev protein and 0 min. of irradiation; t2/Rev1/4'-trunc2 RNA, HIV-1 Rev protein, adn 4 min. of irradiation; t2/Rev1/4'/ PK-trunc2 RNA, HIV1 Rev protein, 4 min. or irradiation, and proteinase K treated as in FIG. 1; t2/Rev2/4'-trunc2 RNA, HIV-2 Rev protein, and 4 min. of irradiation; t2/Tat/ 4'-trunc2 RNA, HIV-1 Tat protein, and 4 min. of irradiation. R-free RNA; XL-crosslinked nucleoprotein complex.

[2] = target: T2, HIV-1 Rev (Human immunodeficiency virus 1, UniProt P04618 P04618:1-116); assay: monophasic; laser-dependent crosslinking at 325 nm; conditions: hairpin
T2 sequence (P04618 whole entry, one chain of several): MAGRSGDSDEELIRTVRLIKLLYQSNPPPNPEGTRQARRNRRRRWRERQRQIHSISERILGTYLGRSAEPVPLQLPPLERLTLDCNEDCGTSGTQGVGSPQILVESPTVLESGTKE
From the text: as §1

[3] = target: T3, R17 bacteriophage coat protein (Bacteriophage R17, UniProt P69170 P69170:1-129); assay: photocrosslinking at 308 nm 5 min, 6.75 nM RNA, 120 nM protein; conditions: tags: purified from R17 phage propagated in E. coli S26; chain copies: 2; hairpin
T3 sequence (P69170 whole entry, one chain of several): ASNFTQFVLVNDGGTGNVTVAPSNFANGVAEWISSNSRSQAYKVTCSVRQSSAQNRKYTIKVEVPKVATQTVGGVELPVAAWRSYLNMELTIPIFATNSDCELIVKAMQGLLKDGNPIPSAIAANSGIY
Method: RNA-7 (SEQ ID NO:4) (FIG. 11) was prepared using methodology as reported in Example 1 using a plasmid instead of a DNA template. The photocrosslinking was performed as described in Example 3. A 4 ml reaction mixture consisting of 6.75 nM RNA and 120 nM R17 coat protein was irradiated, 2 ml at a time, at 308 nm with unfocused emission from a XeCl excimer laser. The laser produced 50 mJ/pulse and was operated at 10 Hz. The reaction proceeded to near quantitative crosslinking, 85–90%, in 5 min of irradiation. After crosslinking, 1 ml of the total reaction mixture was removed; EDTA (80 mM), SDS (0.1%), and CaCl_2 (0.1 mM) were added; the free (unbound) RNA present was purified away; and the protein digested with Proteinase K at 60° C. for 30 min. The RNA bound to residual protein was ethanol precipitated to remove salts and spun to a pellet. The pellet was washed three times with 70% ethanol to remove any residual salts. A reverse transcription reaction was employed to make a complementary DNA copy of the RNA template. A 13-base […] was annealed to the RNA and the reverse transcription reaction was performed under the standard conditions of the manufacturer, Gibco (Gaithersburg, Md.), and was stopped after 1 hr. […] No stop in the 31 nucleotide region of the gel appeared; this established that the reverse transcriptase had read through the position of the crosslink. […]

[4] = target: T3, R17 bacteriophage coat protein; assay: filter; value only in figure; TMK buffer 10 mM Mg acetate, 80 mM KCl, 100 mM Tris pH 8.5, 4 C; near-quantitative crosslinking at 325 nm; conditions: tags: purified from R17 phage propagated in E. coli S26; chain copies: 2; label: 32P; hairpin
[5] = target: T3, R17 bacteriophage coat protein; assay: filter; value only in figure; TMK buffer 10 mM Mg acetate, 80 mM KCl, 100 mM Tris pH 8.5, 4 C; conditions: tags: purified from R17 phage propagated in E. coli S26; chain copies: 2; label: 32P; hairpin
Method: (§2) RNA-protein binding curves for hairpin variants RNA1 (SEQ ID NO:1), RNA-2 (SEQ ID NO:2) and RNA-3 (SEQ ID NO:3) to the bacteriophage R17 coat protein are shown in FIG. 7. The association constants between coat protein and the RNA hairpin variants were determined with a nitrocellulose filter retention assay described by Carey and co-workers (Carey et al. (1983) supra). A constant, low-concentration of ^32p-labeled RNA was mixed with a series of coat protein concentrations between 0.06 nM and 1 µM in 10 mM magnesium acetate, 80 mM KCL, 80 Ag/ml BSA, and 100 mM Tris-HCl (pH 8.5 at 4° C.) (TMK buffer). These were the same solution conditions used in the crosslinking experiments. After incubation at 4° C. for 45–60 min, the mixture was filtered through a nitrocellulose filter and the amount of complex retained on the filter determined by liquid scintillation counting.

[6] = target: T3, R17 bacteriophage coat protein; assay: filter; value only in figure; TMK buffer 10 mM Mg acetate, 80 mM KCl, 100 mM Tris pH 8.5, 4 C; crosslinks max about 40% at 308 nm; conditions: tags: purified from R17 phage propagated in E. coli S26; chain copies: 2; label: 32P; hairpin
Method: as §2
^32P-Labeled RNA sequences RNA-1 (SEQ ID NO:1) and RNA-2 (SEQ ID NO:2) (5 nM) and R17 coat protein (120 nM) were each incubated on ice in 100 mM Tris-HCl (pH 8.5 at 4° C.), 80 mM KCl, 10 mM magnesium acetate, […] of BSA for 15–25 min before irradiations. These are conditions under which the RNA is fully bound to the coat protein. […] Crosslinked RNA was separated from uncrosslinked RNA by PAGE, and the yields were determined by autoradiography.

[7] = target: T2, HIV-1 Rev; assay: monophasic; crosslinks with and without laser, also at 50 nM Rev in human nuclear extract (FIG. 20); conditions: hairpin
Method: To test for the ability of trunc24 (SEQ ID NO:59) to discriminate HIV-1 Rev in a complex mixture, trunc24 and 10 µg of human fibroblast nuclear extract together with decreasing amounts of HIV-1 Rev (FIG. 20). At 50 nM Rev and a 1:100 weight ratio of Rev to nuclear extract, it was possible to see a very significant crosslinked product between trunc24 and Rev.

[8] = target: T1, HIV-2 Rev; assay: photocrosslinks (data not shown); no laser-independent crosslink (FIG. 19); conditions: hairpin

B1: trunc2 (ssRNA)
RNA: GGGUGUAUGAAACACCACGUGUGUUUCCACUC
modifications: 5-iodouracil in place of all U
- binding result [1]: binds
- Kd [2]: 0.5 nM

B2: RNA-7 (ssRNA)
RNA: GAACAUGAGGAUUACCCAUGAAUUCGAGCUCGCCCGGGCUCUAG
modifications: 5-iodouracil in place of U
- binding result [3]: binds

B3: RNA-2 (ssRNA)
RNA: GGGAGCGAGCAAUAGCCGC
modifications: 5-iodouracil in place of U
- binding result [4]: binds

B4: RNA-3 (ssRNA)
RNA: GGGAGCGAGCAAUAGCCGC
- binding result [5]: binds

B5: RNA-1 (ssRNA)
RNA: GGGAGCGAGCAAUAGCCGC
modifications: 5-bromouracil in place of U
- binding result [6]: binds

B6: trunc24 (ssRNA)
RNA: GGGGAUUAACAGGCACACCUGUUAACCCU
modifications: 5-iodouracil in place of all U
- Kd [7]: 20 nM
- binding result [8]: binds
